Source: article PMC2828873 (2009)

Molecular target: Stargazin-derived probe 12 (Rattus norvegicus, UniProt Q71RJ2, N-acetyl, X=Dab(4-DMAP), NRR added)
Experiment: fluorescence titration

- Kd: 10 µM
B1: Shank3 PDZ (protein)
chain: DDKVAILQKRDHEGFGFVLRGAKAETPIEEFTPTPAFPALQYLESVDVEGVAWKAGLRTGDFLIEVNGVNVVKVGHKQVVGLIRQGGNRLVMKVVSVTRKP
